This is an account of results in the Human Domainome abundance scans (Beltran et al. 2025).

First the molecules themselves.
B1: Ventral anterior homeobox 1, residues 102 to 157; numbered along this chain, Q5SQQ9 (parent)
chain: RTRTSFTAEQLYRLEMEFQRCQYVVGRERTELARQLNLSETQVKVWFQNRRTKQKK

± gives the uncertainty stated by the source.

In the data set the parent is B1. Briefly: abundance fitness (aPCA) (normalised: wild type 0, dead -1); higher = more abundant; growth selection in yeast, the domain comes from the species named. To be noted: Homo sapiens.
For C21P, the abundance fitness is -0.231 ± 0.41. With C21L, the abundance fitness was -0.377 ± 0.17.

Take C21M: the abundance fitness was -0.434 ± 0.27. Take C21F: the abundance fitness is -0.21 ± 0.41. On to C21H, for which the abundance fitness was -0.215 ± 0.35. In the case of C21E it was -0.101 ± 0.2; in that of C21A, -0.166 ± 0.31. Consider C21S, for which the abundance fitness is -0.013 ± 0.17. In the case of C21K it was -0.169 ± 0.31; in that of C21T, -0.019 ± 0.35. Consider C21G, for which the abundance fitness is -0.16 ± 0.2. In the case of C21Q it was -0.37 ± 0.27. The figure for C21Y is -0.404 ± 0.28.

Regarding C21D, the abundance fitness is 0.16 ± 0.47. On to Q19I, for which the abundance fitness is -0.165 ± 0.21. On to Q19E, for which the abundance fitness was -0.039 ± 0.14. For the variant Q19L, the abundance fitness was -0.044 ± 0.12.

Turning to Q19W, the abundance fitness is -0.213 ± 0.15. For Q19F, the abundance fitness is -0.33 ± 0.24.

Turning to Q19M, the abundance fitness was -0.133 ± 0.17. The figure for Q19G is -0.133 ± 0.11; for Q19S it is -0.063 ± 0.13. For Q19H, the abundance fitness is -0.274 ± 0.24. In the case of Q19R it was -0.316 ± 0.11; in that of Q19D, -0.161 ± 0.19. Regarding Q19Y, the abundance fitness is -0.603 ± 0.3.

On to Q19N, for which the abundance fitness is -0.115 ± 0.22.

On to Q19V, for which the abundance fitness was -0.153 ± 0.11. For Q19P, the abundance fitness is -0.732 ± 0.24. Turning to Q19T, the abundance fitness was -0.046 ± 0.14.

As to V24N, the abundance fitness was -0.25 ± 0.32. The figure for V24S is -0.09 ± 0.14. The figure for V24E is -0.367 ± 0.22; for V24M it is -0.16 ± 0.18.

Consider V24Y, for which the abundance fitness was -0.421 ± 0.25. The figure for V24L is 0.059 ± 0.14; for V24T it is -0.074 ± 0.19; for V24Q it is -0.559 ± 0.24. For the variant V24A, the abundance fitness was -0.12 ± 0.14.

For the variant V24W, the abundance fitness is -0.416 ± 0.24. Consider V24C, for which the abundance fitness stood at 0.12 ± 0.21. In the case of V24H it was -0.307 ± 0.24. Turning to V24R, the abundance fitness is -0.243 ± 0.13. In the case of V24P it was -0.167 ± 0.21; in that of V24F, -0.408 ± 0.32; in that of V24D, -0.347 ± 0.31. In the case of V24I it was -0.086 ± 0.15; in that of V24G, -0.436 ± 0.14; in that of R34P, -0.907 ± 0.49. The figure for R34V is -0.074 ± 0.12; for R34M it is -0.256 ± 0.26; for R34A it is 0.179 ± 0.15.

Consider R34K, for which the abundance fitness was -0.197 ± 0.3. Take R34D: the abundance fitness was -0.203 ± 0.36. In the case of R34Y it was -0.655 ± 0.41. As for R34Q, the abundance fitness was -0.361 ± 0.3. For the variant R34L, the abundance fitness is -0.273 ± 0.18. In the case of R34S it was -0.061 ± 0.17; in that of R34E, -0.235 ± 0.24; in that of R34W, -0.42 ± 0.33. In the case of R34I it was -0.325 ± 0.48; in that of R34C, -0.395 ± 0.4; in that of E40I, -0.557 ± 0.26. The figure for E40D is -0.128 ± 0.16. Take E40L: the abundance fitness is -0.711 ± 0.15. The figure for E40A is -0.215 ± 0.16. As to E40G, the abundance fitness is -0.413 ± 0.098.

Consider E40C, for which the abundance fitness is -0.226 ± 0.22. In the case of E40H, the abundance fitness was -1.01 ± 0.38. E40K: the abundance fitness is -0.676 ± 0.35. In the case of N37D, the abundance fitness is -0.049 ± 0.2. The figure for N37C is -0.037 ± 0.21. The figure for N37R is -0.134 ± 0.12; for N37L it is -0.307 ± 0.18; for N37T it is -0.254 ± 0.39.

Regarding N37V, the abundance fitness was -0.464 ± 0.29. The figure for N37Q is 0.06 ± 0.27; for N37S it is -0.239 ± 0.19; for N37G it is -0.04 ± 0.12. In the case of N37E it was -0.033 ± 0.26. In the case of N37W it was -0.605 ± 0.2; in that of N37M, -0.536 ± 0.4; in that of N37F, -0.183 ± 0.42. As to N37K, the abundance fitness was -0.092 ± 0.22. As to N37A, the abundance fitness is -0.211 ± 0.23. In the case of R27C it was -0.026 ± 0.2; in that of R27G, 0.003 ± 0.097; in that of R27E, 0.167 ± 0.15. As to R27V, the abundance fitness was -0.01 ± 0.12.

As to R27F, the abundance fitness is -0.141 ± 0.37. Consider R27S, for which the abundance fitness worked out at 0.18 ± 0.15. The figure for R27K is -0.045 ± 0.2; for R27L it is -0.049 ± 0.13; for R27T it is 0.013 ± 0.15. In the case of R27Y it was -0.108 ± 0.21; in that of R27N, 0.156 ± 0.29; in that of R27I, 0.19 ± 0.43. The figure for R27H is -0.245 ± 0.26; for R27P it is 0.008 ± 0.18; for R27Q it is 0.009 ± 0.15. For R27A, the abundance fitness was determined as 0.07 ± 0.14. Consider T30H, for which the abundance fitness was -0.261 ± 0.34. Regarding T30V, the abundance fitness was -0.064 ± 0.16.

As to T30P, the abundance fitness is -0.677 ± 0.3.

Regarding T30M, the abundance fitness was -0.225 ± 0.3. The figure for T30Q is -0.329 ± 0.39; for T30K it is -0.19 ± 0.37; for T30L it is -0.427 ± 0.15. Consider T30D, for which the abundance fitness was -0.468 ± 0.36. As to T30W, the abundance fitness is -0.117 ± 0.32. Turning to T30A, the abundance fitness was -0.102 ± 0.16. Consider T30I, for which the abundance fitness was -0.211 ± 0.21. In the case of T30E it was 0.018 ± 0.23; in that of T30G, -0.215 ± 0.14.

With T30R, the abundance fitness was -0.429 ± 0.16. The figure for T30N is -0.097 ± 0.34. Consider L38A, for which the abundance fitness is -0.253 ± 0.11. In the case of L38V it was 0.027 ± 0.094; in that of L38S, -0.321 ± 0.14; in that of L38C, -0.186 ± 0.16.

Take L38H: the abundance fitness is -0.854 ± 0.43. L38R: the abundance fitness was -0.576 ± 0.11. As to L38I, the abundance fitness is -0.307 ± 0.33. As to L38T, the abundance fitness was -0.411 ± 0.16. In the case of L38G it was -0.822 ± 0.11; in that of L38D, -0.818 ± 0.24; in that of L38P, -1.02 ± 0.25. In the case of L38M, the abundance fitness was -0.112 ± 0.15. As to L38F, the abundance fitness is -0.72 ± 0.39.

Regarding L38W, the abundance fitness is -0.861 ± 0.17. In the case of L38K it was -0.773 ± 0.24; in that of L38Q, -0.91 ± 0.2; in that of V25S, -0.071 ± 0.13. In the case of V25K it was -0.18 ± 0.16.

As to V25F, the abundance fitness was -0.073 ± 0.22. Take V25Y: the abundance fitness is -0.377 ± 0.29. In the case of V25R it was -0.16 ± 0.11; in that of V25H, -0.011 ± 0.29. In the case of V25G it was 0.003 ± 0.11; in that of V25E, 0.204 ± 0.17; in that of V25P, -0.29 ± 0.18. The figure for V25T is -0.087 ± 0.12; for V25I it is -0.226 ± 0.2.

For V25C, the abundance fitness was 0.114 ± 0.25. On to V25N, for which the abundance fitness was -0.326 ± 0.42. Regarding V25Q, the abundance fitness is 0.121 ± 0.17. Turning to V25M, the abundance fitness is -0.396 ± 0.21. The figure for V25W is -0.633 ± 0.16; for V25A it is 0.042 ± 0.14.

With S39Y, the abundance fitness is -0.649 ± 0.34. As to S39L, the abundance fitness was -0.591 ± 0.15. For S39T, the abundance fitness was -0.218 ± 0.17. The figure for S39I is -1.08 ± 0.44; for S39Q it is -0.313 ± 0.15; for S39R it is -0.417 ± 0.11. In the case of S39E it was -0.115 ± 0.18; in that of S39N, 0.063 ± 0.25; in that of S39D, 0.264 ± 0.18. With S39K, the abundance fitness was -0.25 ± 0.2. The figure for S39F is -0.435 ± 0.19; for S39P it is 0.033 ± 0.19; for S39C it is -0.266 ± 0.16. The figure for S39G is -0.375 ± 0.11.

S39H: the abundance fitness was -0.334 ± 0.17. In the case of S39V it was -0.488 ± 0.16.

As to S39W, the abundance fitness is -0.959 ± 0.24. Regarding S39M, the abundance fitness was -0.595 ± 0.2.
